Assay results from paper PMC7925594 (Nature Communications, 2021).

How the values were obtained:
linear tetra-ubiquitin = molecular target: T1, linear tetra-ubiquitin (UniProt P0CG48 1-76; P0CG48 1-76; P0CG48 1-76; P0CG48 1-76); assay: co-IP; purified recombinant HA-N4BP1 or domain deletion forms incubated with ubiquitin chains in assay buffer (50 mM Tris-HCl pH 7.4, 150 mM NaCl, 1 mM dithiothreitol) for 2 h at 4 °C; immunoprecipitation with anti-HA (mouse IgG as control); immunoblot; settings: both partners purified
T1 construct: ubiquitin, unit 1 of 4; ubiquitin, unit 2 of 4; ubiquitin, unit 3 of 4; ubiquitin, unit 4 of 4; also called linear tetra-ubiquitin chains; source: bought: LifeSensors (recombinant)
T1 sequence (P0CG48 1-304, one chain of several): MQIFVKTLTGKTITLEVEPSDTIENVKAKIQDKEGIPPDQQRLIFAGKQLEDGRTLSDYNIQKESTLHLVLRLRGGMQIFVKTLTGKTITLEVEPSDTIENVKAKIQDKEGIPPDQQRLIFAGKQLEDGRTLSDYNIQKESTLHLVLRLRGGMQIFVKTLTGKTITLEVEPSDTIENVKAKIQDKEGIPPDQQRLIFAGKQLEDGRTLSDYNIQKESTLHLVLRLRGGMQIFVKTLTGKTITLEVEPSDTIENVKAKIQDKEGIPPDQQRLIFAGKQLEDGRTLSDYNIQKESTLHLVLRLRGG

linear hepta-ubiquitin = molecular target: T2, linear hepta-ubiquitin (UniProt P0CG48 1-76; P0CG48 1-76; P0CG48 1-76; P0CG48 1-76; P0CG48 1-76; P0CG48 1-76; …); assay: as above; settings: both partners purified
T2 construct: ubiquitin, unit 1 of 7; ubiquitin, unit 2 of 7; ubiquitin, unit 3 of 7; ubiquitin, unit 4 of 7; ubiquitin, unit 5 of 7; ubiquitin, unit 6 of 7; ubiquitin, unit 7 of 7; The reagents name a supplier only for the tetra-ubiquitins; also called linear ubiquitin chains; linear polyubiquitin chains
T2 sequence (P0CG48 1-532, one chain of several): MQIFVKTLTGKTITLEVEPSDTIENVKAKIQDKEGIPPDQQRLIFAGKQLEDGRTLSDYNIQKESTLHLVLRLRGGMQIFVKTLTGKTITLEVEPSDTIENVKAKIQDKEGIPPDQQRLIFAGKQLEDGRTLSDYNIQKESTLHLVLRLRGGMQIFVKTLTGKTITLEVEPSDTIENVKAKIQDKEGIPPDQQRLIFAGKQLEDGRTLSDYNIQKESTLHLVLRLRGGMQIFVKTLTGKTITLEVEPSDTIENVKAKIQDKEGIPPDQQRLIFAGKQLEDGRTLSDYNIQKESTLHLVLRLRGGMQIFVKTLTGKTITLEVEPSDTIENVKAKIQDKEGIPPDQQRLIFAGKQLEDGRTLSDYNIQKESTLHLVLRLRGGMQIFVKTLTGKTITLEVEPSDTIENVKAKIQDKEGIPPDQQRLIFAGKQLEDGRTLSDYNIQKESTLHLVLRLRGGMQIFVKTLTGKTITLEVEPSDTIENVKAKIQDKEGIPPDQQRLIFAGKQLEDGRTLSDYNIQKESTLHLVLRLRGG

binding result (linear tetra-ubiquitin): binds
binding result (linear hepta-ubiquitin): binds
B1: HA-tagged N4BP1 (full-length) (natural protein, UniProt O75113 1-896, looked up)
chain: MAARAVLDEFTAPAEKAELLEQSRGRIEGLFGVSLAVLGALGAEEPLPARIWLQLCGAQEAVHSAKEYIKGICEPELEERECYPKDMHCIFVGAESLFLKSLIQDTCADLCILDIGLLGIRGSAEAVVMARSHIQQFVKLFENKENLPSSQKESEVKREFKQFVEAHADNYTMDLLILPTSLKKELLTLTQGEENLFETGDDEVIEMRDSQQTEFTQNAATGLNISRDETVLQEEARNKAGTPVSELTKQMDTVLSSSPDVLFDPINGLTPDEEALSNERICQKRRFSDSEERHTKKQFSLENVQEGEILHDAKTLAGNVIADLSDSSADSENLSPDIKETTEEMEYNILVNFFKTMGYSQEIVEKVIKVYGPSTEPLLLLEEIEKENKRFQEDREFSAGTVYPETNKTKNKGVYSSTNELTTDSTPKKTQAHTQQNMVEKFSQLPFKVEAKPCTSNCRINTFRTVPIEQKHEVWGSNQNYICNTDPETDGLSPSVASPSPKEVNFVSRGASSHQPRVPLFPENGLHQQPEPLLPNNMKSACEKRLGCCSSPHSKPNCSTLSPPMPLPQLLPSVTDARSAGPSDHIDSSVTGVQRFRDTLKIPYKLELKNEPGRTDLKHIVIDGSNVAITHGLKKFFSCRGIAIAVEYFWKLGNRNITVFVPQWRTRRDPNVTEQHFLTQLQELGILSLTPARMVFGERIASHDDRFLLHLADKTGGIIVTNDNFREFVNESVSWREIITKRLLQYTFVGDIFMVPDDPLGRSGPRLEEFLQKEVCLRDMQPLLSALPNVGMFDPSFRVPGTQAASTSHQPPTRIQGAPSSHWLPQQPHFPLLPALPSLQQNLPMPAQRSSAETNELREALLKIFPDSEQRLKIDQILVAHPYMKDLNALSAMVLD
notes: the vector of the other experiments is only called a mammalian expression vector; also called HA-N4BP1; F.L; source: HEK293T or N4BP1-/- HEK293T, transfected, in lysate; also overexpressed in HEK293T and purified (immunoprecipitation, HA peptide elution, Superdex 200 gel filtration); not shown: HA, N-terminal, kept
